Measured values reported in US20260116991A1 (HAINAN SIMCERE ZAIMING PHARMACEUTICAL, published 2026).
Positions count from the first letter of the chain named. Blank lines part the entries; values can stand above or below the binder they belong to.

Experiments:
[1] = molecular target: biotinylated labeled human GPC3 protein (produced in-house) (human, UniProt P51654 25-559, limits assumed, biotinylated (Dojindo, Cat. No. LK03); sites not stated); assay: ELISA, biotinylated human GPC3 protein
[2] = molecular target: T1, human GPC3 on CHO-K1-human GPC3 cells (CHOK1-hGPC3.2B5) (human, UniProt P51654 25-554); assay: FACS, CHOK1-hGPC3.2B5 cells;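 further: flow cytometry of humanized antibodies binding to the cells over one hour in the cold, read as cell mean fluorescence intensity, with EC50 obtained by curve fitting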
T1 construct: whole, on cells

B2: hAb006LH2L1 (antibody, human IgG1, V domains shown)
VH: EVQLVQSGAEVKKPGSSVKVSCKASGYTFTDYEIHWVRQAPGQGLEWMGAIDPKTGNTAYNQKFMGRVTITADKSTSTAYMELSSLRSEDTAVYYCTRYFSFAYWGQGTLVTVSS
VL: DIVMTQTPLSLPVTPGEPASISCRSSQTFVHSNGNTYLQWYLQKPGQSPQLLIYKVSNRFSGVPDRFSGSGSGTDFTLKISRVEAEDVGVYYCFQGSHVPYTFGQGTKLEIK
notes: Humanized F3.38.7; VH H2 + VL L1; expressed as human IgG1
OD450 at 0.0008 nM [1]: 0.192 OD450
OD450 at 0.004 nM [1]: 0.629 OD450
OD450 at 0.02 nM [1]: 1 OD450
OD450 at 0.11 nM [1]: 1.83 OD450
OD450 at 0.53 nM [1]: 2.36 OD450
OD450 at 2.67 nM [1]: 2.4 OD450
OD450 at 13.33 nM [1]: 2.29 OD450
OD450 at 66.66 nM [1]: 2.28 OD450
EC50 [2]: 1.02 nM
Max MFI [2]: 4880 MFI

B4: hAb003LH3L1 (antibody, human IgG1, V domains shown)
VH: B2 VH with T28R, I34M, A50T, K54E, N61T, G66D, I70L, Y99G, F100Y, A103T
VL: B2 VL with T28N, F29I, Y54F, Y101F
notes: Humanized F2.154.1; VH H3 + VL L1; expressed as human IgG1
OD450 at 0.0008 nM [1]: 0.137 OD450
OD450 at 0.004 nM [1]: 0.297 OD450
OD450 at 0.02 nM [1]: 0.915 OD450
OD450 at 0.11 nM [1]: 1.89 OD450
OD450 at 0.53 nM [1]: 2.26 OD450
OD450 at 2.67 nM [1]: 2.56 OD450
OD450 at 13.33 nM [1]: 2.3 OD450
OD450 at 66.66 nM [1]: 2.39 OD450
EC50 [2]: 1.08 nM
Max MFI [2]: 5040 MFI

B5: hAb003LH2L1b (antibody, human IgG1, V domains shown)
VH: B2 VH with T28R, I34M, A50T, K54E, N61T, G66D, Y99G, F100Y, A103T
VL: B2 VL with T28N, F29I, G34R, Y54F, Y101F
notes: Humanized F2.154.1; VH H2 + VL L1b; expressed as human IgG1
OD450 at 0.0008 nM [1]: 0.171 OD450
OD450 at 0.004 nM [1]: 0.372 OD450
OD450 at 0.02 nM [1]: 1.05 OD450
OD450 at 0.11 nM [1]: 1.97 OD450
OD450 at 0.53 nM [1]: 2.44 OD450
OD450 at 2.67 nM [1]: 2.39 OD450
OD450 at 13.33 nM [1]: 2.5 OD450
OD450 at 66.66 nM [1]: 2.6 OD450
EC50 [2]: 0.584 nM
Max MFI [2]: 5000 MFI

B6: hAb007LH1L1b (antibody, human IgG1, V domains shown)
VH: B2 VH with T30S, I34M, A50T, K54E, M65K, Y99P, F100Y, F102L, A103T
VL: B2 VL with T28S, G34R, N35D
notes: Humanized F3.81.19; VH H1 + VL L1b; expressed as human IgG1
OD450 at 0.0008 nM [1]: 0.099 OD450
OD450 at 0.004 nM [1]: 0.137 OD450
OD450 at 0.02 nM [1]: 0.341 OD450
OD450 at 0.11 nM [1]: 1.07 OD450
OD450 at 0.53 nM [1]: 1.98 OD450
OD450 at 2.67 nM [1]: 2.34 OD450
OD450 at 13.33 nM [1]: 2.38 OD450
OD450 at 66.66 nM [1]: 2.46 OD450
EC50 [2]: 6.47 nM
Max MFI [2]: 6070 MFI

B8: hAb006LH2L1b (antibody, human IgG1, V domains shown)
VH: B2 VH
VL: B2 VL with G34A
notes: Humanized F3.38.7; VH H2 + VL L1b; expressed as human IgG1
OD450 at 0.0008 nM [1]: 0.16 OD450
OD450 at 0.004 nM [1]: 0.316 OD450
OD450 at 0.02 nM [1]: 0.872 OD450
OD450 at 0.11 nM [1]: 1.91 OD450
OD450 at 0.53 nM [1]: 2.41 OD450
OD450 at 2.67 nM [1]: 2.55 OD450
OD450 at 13.33 nM [1]: 2.4 OD450
OD450 at 66.66 nM [1]: 2.37 OD450
EC50 [2]: 1.14 nM
Max MFI [2]: 4790 MFI

B10: hAb006LH3L1b (antibody, human IgG1, V domains shown)
VH: B2 VH with I70L
VL: B2 VL with G34A
notes: Humanized F3.38.7; VH H3 + VL L1b; expressed as human IgG1
OD450 at 0.0008 nM [1]: 0.155 OD450
OD450 at 0.004 nM [1]: 0.309 OD450
OD450 at 0.02 nM [1]: 0.878 OD450
OD450 at 0.11 nM [1]: 1.93 OD450
OD450 at 0.53 nM [1]: 2.36 OD450
OD450 at 2.67 nM [1]: 2.42 OD450
OD450 at 13.33 nM [1]: 2.36 OD450
OD450 at 66.66 nM [1]: 2.5 OD450
EC50 [2]: 0.97 nM
Max MFI [2]: 4670 MFI

B12: hAb006LH1L1 (antibody, human IgG1, V domains shown)
VH: B2 VH with T30S
VL: B2 VL
notes: Humanized F3.38.7; VH H1 + VL L1; expressed as human IgG1
OD450 at 0.0008 nM [1]: 0.117 OD450
OD450 at 0.004 nM [1]: 0.365 OD450
OD450 at 0.02 nM [1]: 1.05 OD450
OD450 at 0.11 nM [1]: 1.9 OD450
OD450 at 0.53 nM [1]: 2.39 OD450
OD450 at 2.67 nM [1]: 2.36 OD450
OD450 at 13.33 nM [1]: 2.42 OD450
OD450 at 66.66 nM [1]: 2.43 OD450
EC50 [2]: 0.906 nM
Max MFI [2]: 4780 MFI

B13: hAb006LH3L1 (antibody, human IgG1, V domains shown)
VH: B2 VH with I70L
VL: B2 VL
notes: Humanized F3.38.7; VH H3 + VL L1; expressed as human IgG1
OD450 at 0.0008 nM [1]: 0.154 OD450
OD450 at 0.004 nM [1]: 0.287 OD450
OD450 at 0.02 nM [1]: 0.819 OD450
OD450 at 0.11 nM [1]: 1.65 OD450
OD450 at 0.53 nM [1]: 2.06 OD450
OD450 at 2.67 nM [1]: 2.2 OD450
OD450 at 13.33 nM [1]: 2.25 OD450
OD450 at 66.66 nM [1]: 2.33 OD450
EC50 [2]: 0.929 nM
Max MFI [2]: 4920 MFI

The remaining binders from weak to strong by EC50 [2], led by results:

OD450 at 0.0008 nM [1]: 0.088 OD450
OD450 at 0.004 nM [1]: 0.146 OD450
OD450 at 0.02 nM [1]: 0.423 OD450
OD450 at 0.11 nM [1]: 1.18 OD450
OD450 at 0.53 nM [1]: 1.9 OD450
OD450 at 2.67 nM [1]: 2.14 OD450
OD450 at 13.33 nM [1]: 2.18 OD450
OD450 at 66.66 nM [1]: 2.34 OD450
EC50 [2]: 11.6 nM
Max MFI [2]: 1770 MFI
B1: hAb003LH2L1a (antibody, human IgG1, V domains shown)
VH: B2 VH with T28R, I34M, A50T, K54E, N61T, G66D, Y99G, F100Y, A103T
VL: B2 VL with T28N, F29I, N33D, Y54F, Y101F
notes: Humanized F2.154.1; VH H2 + VL L1a; expressed as human IgG1

OD450 at 0.0004 nM [1]: 0.06 OD450
OD450 at 0.002 nM [1]: 0.085 OD450
OD450 at 0.011 nM [1]: 0.187 OD450
OD450 at 0.056 nM [1]: 0.592 OD450
OD450 at 0.28 nM [1]: 1.23 OD450
OD450 at 1.39 nM [1]: 1.36 OD450
OD450 at 6.94 nM [1]: 1.44 OD450
OD450 at 34.72 nM [1]: 1.32 OD450
EC50 [2]: 2.06 nM
Max MFI [2]: 15800 MFI
B3: hAb006LH3L1e (antibody, human IgG1, V domains shown)
VH: B2 VH with I70L
VL: B2 VL with G34V
notes: Humanized F3.38.7; VH H3 + VL L1e; expressed as human IgG1

OD450 at 0.0008 nM [1]: 0.109 OD450
OD450 at 0.004 nM [1]: 0.17 OD450
OD450 at 0.02 nM [1]: 0.496 OD450
OD450 at 0.11 nM [1]: 1.36 OD450
OD450 at 0.53 nM [1]: 2.14 OD450
OD450 at 2.67 nM [1]: 2.42 OD450
OD450 at 13.33 nM [1]: 2.38 OD450
OD450 at 66.66 nM [1]: 2.43 OD450
EC50 [2]: 2.02 nM
Max MFI [2]: 6440 MFI
B9: hAb007LH1L1 (antibody, human IgG1, V domains shown)
VH: B2 VH with T30S, I34M, A50T, K54E, M65K, Y99P, F100Y, F102L, A103T
VL: B2 VL with T28S, N35D
notes: Humanized F3.81.19; VH H1 + VL L1; expressed as human IgG1

OD450 at 0.0004 nM [1]: 0.058 OD450
OD450 at 0.002 nM [1]: 0.096 OD450
OD450 at 0.011 nM [1]: 0.228 OD450
OD450 at 0.056 nM [1]: 0.59 OD450
OD450 at 0.28 nM [1]: 1.11 OD450
OD450 at 1.39 nM [1]: 1.61 OD450
OD450 at 6.94 nM [1]: 1.33 OD450
OD450 at 34.72 nM [1]: 1.45 OD450
EC50 [2]: 1.98 nM
Max MFI [2]: 17600 MFI
B14: hAb006LH3L1d (antibody, human IgG1, V domains shown)
VH: B2 VH with I70L
VL: B2 VL with G34S
notes: Humanized F3.38.7; VH H3 + VL L1d; expressed as human IgG1

OD450 at 0.0004 nM [1]: 0.071 OD450
OD450 at 0.002 nM [1]: 0.102 OD450
OD450 at 0.011 nM [1]: 0.265 OD450
OD450 at 0.056 nM [1]: 0.756 OD450
OD450 at 0.28 nM [1]: 1.3 OD450
OD450 at 1.39 nM [1]: 1.46 OD450
OD450 at 6.94 nM [1]: 1.44 OD450
OD450 at 34.72 nM [1]: 1.36 OD450
EC50 [2]: 1.16 nM
Max MFI [2]: 18000 MFI
B7: hAb006LH3L1c (antibody, human IgG1, V domains shown)
VH: B2 VH with I70L
VL: B2 VL with G34R
notes: Humanized F3.38.7; VH H3 + VL L1c; expressed as human IgG1

OD450 at 0.0008 nM [1]: 0.15 OD450
OD450 at 0.004 nM [1]: 0.288 OD450
OD450 at 0.02 nM [1]: 0.841 OD450
OD450 at 0.11 nM [1]: 1.71 OD450
OD450 at 0.53 nM [1]: 2.4 OD450
OD450 at 2.67 nM [1]: 2.46 OD450
OD450 at 13.33 nM [1]: 2.47 OD450
OD450 at 66.66 nM [1]: 2.57 OD450
EC50 [2]: 1.1 nM
Max MFI [2]: 4630 MFI
B11: hAb006LH1L1b (antibody, human IgG1, V domains shown)
VH: B2 VH with T30S
VL: B2 VL with G34A
notes: Humanized F3.38.7; VH H1 + VL L1b; expressed as human IgG1
